B2: His-MBP-Pch2 (natural protein, budding yeast, UniProt P38126 1-564, looked up)
chain: MSYIVDLQVRGSSLRVIKCMFREDEQISSLHSGSDSKQNSNKKLGEFLNLLKAVVKRKLESFPKDRLKTSIITGQELMREGQGSIEIKDPPTEAQQHLIRSLAKVLLHQFSSINGKVNTVNEGQDNLFLSLFVKKISIEQQSTSHVSIKLNFHEKINLGQHIDSILDSEETNESDTYHMGSVDEFIIYPFCCLEEQDELKNGSILSTEFDKIDLELDEDDGFEGETLNNCINSVGNFDIPLSKQTLNLVNISYLPGTTFEGQWESLYFGNNIKERLYSYATISLKIARFKQTGDSNQEDITTLITNNKLLLVHGPPGTGKTTLCKALCQKLSVRREFSDGSDTIDTNYKGIIIELSCARIFSKWFGESSKNISIVFKDIEELLKVNEGRGIFICLLIDEVEAIASSRTNLSSRNESTDGIRVVNTLLTQLDRLKKYHNFLALATSNLLDSLDDAFVDRADGVFYVGNPTAEGILHILKVCIEEMITSGIILFHARSTGVKFFNKYQDILRKIAIKCSTVDISGRTIRKLPLMCLSEYFRTFPVDDDEFVLALAMSARKLSAARK

How the values were obtained:
His-MBP-Pch2 = target: B2; assay: cross-linking
[1] = target: T1, His-Orc1 (subunit of the purified His-ORC complex) (budding yeast, UniProt P54784 1-913); assay: cross-linking
T1 sequence: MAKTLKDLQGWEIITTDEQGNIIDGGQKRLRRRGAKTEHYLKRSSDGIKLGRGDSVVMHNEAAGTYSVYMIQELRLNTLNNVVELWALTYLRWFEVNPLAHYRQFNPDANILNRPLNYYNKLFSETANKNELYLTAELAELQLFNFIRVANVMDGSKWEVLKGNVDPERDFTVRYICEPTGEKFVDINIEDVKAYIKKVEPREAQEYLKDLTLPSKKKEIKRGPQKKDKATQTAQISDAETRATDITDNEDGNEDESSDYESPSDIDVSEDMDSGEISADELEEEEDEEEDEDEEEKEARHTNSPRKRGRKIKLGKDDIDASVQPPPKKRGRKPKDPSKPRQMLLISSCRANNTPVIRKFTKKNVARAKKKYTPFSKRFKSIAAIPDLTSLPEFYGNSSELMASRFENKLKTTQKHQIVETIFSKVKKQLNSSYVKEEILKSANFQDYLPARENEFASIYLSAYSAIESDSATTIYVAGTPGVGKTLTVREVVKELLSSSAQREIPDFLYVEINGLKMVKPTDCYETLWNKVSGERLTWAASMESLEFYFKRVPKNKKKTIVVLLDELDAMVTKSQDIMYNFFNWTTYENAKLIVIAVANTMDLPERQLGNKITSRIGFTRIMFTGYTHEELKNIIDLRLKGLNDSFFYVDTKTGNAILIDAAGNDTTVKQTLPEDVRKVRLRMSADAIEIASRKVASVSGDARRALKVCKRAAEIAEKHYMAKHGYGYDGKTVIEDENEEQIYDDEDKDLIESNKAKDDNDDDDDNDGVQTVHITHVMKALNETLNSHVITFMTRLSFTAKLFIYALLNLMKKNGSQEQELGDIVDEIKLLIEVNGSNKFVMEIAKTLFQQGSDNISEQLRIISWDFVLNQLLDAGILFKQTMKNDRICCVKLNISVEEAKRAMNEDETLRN

SEC = target: the molecule itself; assay: SEC
6xHis-Hop1 = target: T2, 6xHis-Hop1 (budding yeast, UniProt P20050 1-605); assay: pull-down
T2 sequence (looked up): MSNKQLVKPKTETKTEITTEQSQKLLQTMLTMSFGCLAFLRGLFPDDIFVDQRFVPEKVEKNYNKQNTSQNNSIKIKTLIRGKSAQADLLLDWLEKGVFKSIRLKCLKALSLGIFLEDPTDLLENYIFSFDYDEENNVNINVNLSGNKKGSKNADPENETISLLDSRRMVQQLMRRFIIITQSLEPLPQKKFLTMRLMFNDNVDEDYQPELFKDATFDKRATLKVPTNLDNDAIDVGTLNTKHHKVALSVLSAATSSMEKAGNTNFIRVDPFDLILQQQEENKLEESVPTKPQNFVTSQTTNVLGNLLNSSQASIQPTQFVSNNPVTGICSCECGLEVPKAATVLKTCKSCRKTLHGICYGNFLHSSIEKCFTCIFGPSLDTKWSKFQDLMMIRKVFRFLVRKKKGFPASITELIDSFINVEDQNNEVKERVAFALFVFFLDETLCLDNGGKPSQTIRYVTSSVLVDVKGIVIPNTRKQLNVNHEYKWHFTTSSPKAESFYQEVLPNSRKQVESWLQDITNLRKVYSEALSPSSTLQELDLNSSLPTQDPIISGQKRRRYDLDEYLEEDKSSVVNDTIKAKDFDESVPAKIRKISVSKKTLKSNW

B1: Orc5 (subunit of the purified His-ORC complex) (natural protein, budding yeast)
chain: MNVTTPEVAFREYQTNCLASYISADPDITPSNLILQGYSGTGKTYTLKKYFNANPNLHAVWLEPVELVSWKPLLQAIARTVQYKLKTLYPNIPTTDYDPLQVEEPFLLVKTLHNIFVQYESLQEKTCLFLILDGFDSLQDLDAALFNKYIKLNELLPKDSKINIKFIYTMLETSFLQRYSTHCIPTVMFPRYNVDEVSTILVMSRCGELMEDSCLRKRIIEEQITDCTDDQFQNVAANFIHLIVQAFHSYTGNDIFALNDLIDFKWPKYVSRITKENIFEPLALYKSAIKLFLSTDDNLSENGQGESAITTNRDDLENSQTYDLSIISKYLLIASYICSYLEPRYDASIFSRKTRIIQGRAAYGRRKKKEVNPRYLQPSLFAIERLLAIFQAIFPIQGKAESGSLSALREESLMKANIEVFQNLSELHTLKLIATTMNKNIDYLSPKVRWKVNVPWEIIKEISESVHFNISDYFSDIHE
binding result (His-MBP-Pch2): binds

B2
binding result [1]: binds
stoichiometry N (SEC): 6
binding result (6xHis-Hop1): binds

From doi:10.1101/598128 (bioRxiv, 2019)
